# Data taken from patent US20140161821A1, “TREATMENT WITH ANTI-PCSK9 ANTIBODIES” (PFIZER INC., priority 2011, published 2014).
# B1: L1L3: humanized (<5% murine residues) monoclonal PCSK9 antagonist antibody that binds to secreted PCSK9; VH SEQ ID NO: 11, VL SEQ ID NO: 12 (antibody, V domains shown)
# VH: QVQLVQSGAEVKKPGASVKVSCKASGYTFTSYYMHWVRQAPGQGLEWMGEISPFGGRTNYNEKFKSRVTMTRDTSTSTVYMELSSLRSEDTAVYYCARERPLYASDLWGQGTTVTVSS
# VL: DIQMTQSPSSLSASVGDRVTITCRASQGISSALAWYQQKPGKAPKLLIYSASYRYTGVPSRFSGSGSGTDFTFTISSLQPEDIATYYCQQRYSLWRTFGQGTKLEIK
# modifications: heavy chain variable region; light chain variable region
# Legend:
# Assay type in all cases: in vivo
# [1] = target: T1, PCSK9 (Rattus norvegicus, UniProt P59996); test: Dose-response of serum cholesterol and triglycerides in Sprague-Dawley rats, single IP dose
# T1 construct: endogenous in cells; host or cells: live Sprague-Dawley rats (in vivo, serum PCSK9)
# Text: The duration of the cholesterol repression was also dose dependent, ranging from 1 to 21 days.
# [2] = PK study, single bolus i.v. injection in cynomolgus monkeys, total antibody concentration
# [3] = target: T2, PCSK9 (Homo sapiens, UniProt Q8NBP7); test: Example 2 clinical study, single escalating IV doses: fasting lipids
# T2 construct: PCSK9 antagonist antibody that antagonizes circulating PCSK9; endogenous in cells; host or cells: human subjects in clinical trials (in vivo, circulating PCSK9)
# Experimental: The study entailed a randomized, placebo-controlled, ascending, single dose study of L1L3. The subjects, investigator, and site personnel (except site personnel responsible for drug preparation) were blinded to treatment assignments, as was the CRO designee; while the Sponsor clinical research team was unblinded. The study was conducted in 6 planned cohorts of 8 subjects per cohort in an effort to seek a maximum tolerated dose or MTD (total of approximately 48 subjects). […] Doses were administered following an overnight fast as an intravenous infusion over 60 minutes. […] Infusions will be administered as a single infusion over 60 minutes.
# Change in serum lipids (total cholesterol, LDL, HDL, Triglycerides, Non-HDL-C and Apoprotein B) were assessed.
# Collection of fasting lipid profile was performed after at least a 10-hour fast (total cholesterol, LDL, HDL, Non-HDL Cholesterol, Apo B and triglycerides).
# T2 sequence (Q8NBP7 153-692): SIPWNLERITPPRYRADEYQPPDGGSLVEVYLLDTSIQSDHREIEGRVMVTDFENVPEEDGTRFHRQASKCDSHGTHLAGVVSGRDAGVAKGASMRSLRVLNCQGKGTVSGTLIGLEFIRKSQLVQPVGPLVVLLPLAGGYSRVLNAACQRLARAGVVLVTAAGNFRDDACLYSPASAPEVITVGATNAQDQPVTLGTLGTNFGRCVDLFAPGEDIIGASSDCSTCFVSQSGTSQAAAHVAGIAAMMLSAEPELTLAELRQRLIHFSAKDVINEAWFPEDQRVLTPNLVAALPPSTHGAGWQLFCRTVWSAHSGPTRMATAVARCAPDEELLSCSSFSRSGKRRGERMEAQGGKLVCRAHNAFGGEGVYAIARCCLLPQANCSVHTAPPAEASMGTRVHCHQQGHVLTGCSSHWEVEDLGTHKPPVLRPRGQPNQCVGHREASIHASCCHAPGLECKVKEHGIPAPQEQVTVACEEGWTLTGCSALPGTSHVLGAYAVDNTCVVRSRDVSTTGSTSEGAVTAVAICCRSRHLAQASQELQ
# T2 sequence (Q8NBP7 31-152 partner limits assumed): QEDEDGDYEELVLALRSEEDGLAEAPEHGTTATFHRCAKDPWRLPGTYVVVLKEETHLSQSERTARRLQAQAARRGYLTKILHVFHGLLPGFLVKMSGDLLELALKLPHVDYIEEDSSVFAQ
# T1 sequence (P59996 152-691): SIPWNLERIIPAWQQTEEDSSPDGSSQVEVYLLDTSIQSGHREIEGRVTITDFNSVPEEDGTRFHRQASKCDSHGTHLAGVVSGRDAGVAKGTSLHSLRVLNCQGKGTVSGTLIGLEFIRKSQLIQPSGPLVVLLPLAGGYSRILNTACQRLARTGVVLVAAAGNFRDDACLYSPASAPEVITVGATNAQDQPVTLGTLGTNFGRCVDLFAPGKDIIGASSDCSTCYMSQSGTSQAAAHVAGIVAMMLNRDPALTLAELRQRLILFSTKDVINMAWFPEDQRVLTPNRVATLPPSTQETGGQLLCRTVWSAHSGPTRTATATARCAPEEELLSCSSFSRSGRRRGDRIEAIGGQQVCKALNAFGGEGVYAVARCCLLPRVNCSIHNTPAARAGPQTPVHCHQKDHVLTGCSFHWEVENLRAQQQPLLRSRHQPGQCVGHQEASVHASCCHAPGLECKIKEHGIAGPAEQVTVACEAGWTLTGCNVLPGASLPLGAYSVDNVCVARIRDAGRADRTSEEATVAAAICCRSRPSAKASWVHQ
molecule,measurement,setting,value
B1,"Non-fasting serum triglyceride levels, maximum increase",[1]; single IP 80 mg/kg,approximately three
same,"Serum cholesterol reduction, maximum effect","[1]; single IP 10 and 80 mg/kg, 48 hours post dosing",50%
same,Estimated β-phase half-life,[2]; single i.v. 0.1 mg/kg,0.67 days
same,Estimated β-phase half-life,[2]; single i.v. 1.0 mg/kg,1.91 days
same,Estimated β-phase half-life,[2]; single i.v. 3.0 mg/kg,2.33 days
same,Estimated β-phase half-life,[2]; single i.v. 10.0 mg/kg,3.49 days
same,Estimated β-phase half-life,[2]; single i.v. 100.0 mg/kg,5.25 days
same,"Fasting apolipoprotein B (apo B), % below baseline","[3]; 0.3 mg/kg, by day 7",about 25%
same,"Fasting apolipoprotein B (apo B), % below baseline","[3]; 1 mg/kg, by day 14",about 40%
same,"Fasting apolipoprotein B (apo B), % below baseline","[3]; 3 mg/kg, by day 14",about 40%
same,"Fasting apolipoprotein B (apo B), % below baseline","[3]; 3 mg/kg, by day 28",about 50%
same,Fasting LDL-C levels,"[3]; 6 mg/kg or 12 mg/kg, by day 14 post-dosing",about 55 mg/dL
same,"Fasting apolipoprotein B (apo B), % below baseline","[3]; 6 mg/kg, by day 14",about 40%
same,"Fasting apolipoprotein B (apo B), % below baseline","[3]; 6 mg/kg, by day 21",about 50%
same,"Fasting apolipoprotein B (apo B), % below baseline","[3]; 6 mg/kg, generally, remainder of the study",> 30%
same,LDL-C percentage change from baseline (lowering),"[3]; 18 mg/kg, FIG. 2",up to 83%
same,Fasting LDL-C levels,"[3]; 18 mg/kg, by day 14 post-dosing",about 20 mg/dL
same,Fasting LDL-C levels,"[3]; 1, 3, 6, 12, or 18 mg/kg, by day 14 post-dosing",≤ 70 mg/dL
same,"Fasting apolipoprotein B (apo B), % below baseline","[3]; 12 or 18 mg/kg, by day 14, baseline about 119 mg/dL",about 50%
same,"Fasting apolipoprotein B (apo B), % below baseline","[3]; 12 or 18 mg/kg, remainder of the study after day 14",≥ 50%
same,Earliest day LDL-C lowering effects were seen,[3]; all dosage groups,3 days
same,Day of maximum percentage LDL-C lowering,"[3]; in general, all dosage groups",Day 15 or Day 22
same,Duration of maximum LDL-C lowering effect,[3]; single 0.3 mg/kg,7 days
same,"Fasting total cholesterol (TC), % reduced","[3]; single 0.3 mg/kg, by about day 9",about 25%
same,Fasting LDL-C levels,"[3]; single 0.3 mg/kg, day 7 post-dosing",about 85 mg/dL
same,Fasting LDL-C levels,"[3]; single 0.3 mg/kg, until about 10 days post-dosing",below 100 mg/dL
same,Duration of maximum LDL-C lowering effect,[3]; single 1.0 mg/kg,14 days
same,"Fasting total cholesterol (TC), % below baseline","[3]; single 1 mg/kg, by about day 15",about 36%
same,Fasting LDL-C levels,"[3]; single 1 mg/kg, day 14 post-dosing",about 65 mg/dL
same,Fasting LDL-C levels,"[3]; single 1 mg/kg, until about 21 days post-dosing",below 100 mg/dL
same,Duration of maximum LDL-C lowering effect,[3]; single 3.0 mg/kg,up to 4 weeks
same,"Fasting total cholesterol (TC), % below baseline","[3]; single 3 mg/kg, by about day 9",about 30%
same,"Fasting total cholesterol (TC), % below baseline","[3]; single 3 mg/kg, by about day 22",about 40%
same,Fasting LDL-C levels,"[3]; single 3 mg/kg, day 14 post-dosing",about 70 mg/dL
same,Fasting LDL-C levels,"[3]; single 3 mg/kg, day 21 post-dosing",about 60 mg/dL
same,"LDL-C levels, % below baseline","[3]; single 3 mg/kg, maintained up to 29 days post administration",> 60%
same,"LDL-C levels, % below baseline","[3]; single 3 mg/kg, maintained up to 50 days post administration",> 20%
same,Fasting LDL-C levels,"[3]; single 3 mg/kg, until about 36 days post-dosing",below 100 mg/dL
same,"LDL-C levels, % below baseline","[3]; single 6 mg/kg or 12 mg/kg, maintained up to 43 days post administration",> 60%
same,Duration of maximum LDL-C lowering effect,"[3]; single 6 mg/kg, 12 mg/kg, and 18 mg/kg",more than 6 weeks
same,"Fasting total cholesterol (TC), % below baseline","[3]; single 6 mg/kg, by about day 9 until about day 52 post-dosing",≥ 30%
same,"Fasting total cholesterol (TC), % below baseline, in a number of subjects","[3]; single 6 mg/kg, by day 30 post-dosing",> 50%
same,Fasting LDL-C levels,"[3]; single 6 mg/kg, for about 42 days post-dosing",below 50 mg/dL
same,Fasting LDL-C levels,"[3]; single 6 mg/kg, until at least about 57 days post-dosing",below 100 mg/dL
same,Fasting LDL-C levels,"[3]; single 12 mg/kg, until at least about 57 days post-dosing (end of study)",≤ 60 mg/dL
same,"LDL-C levels, % below baseline","[3]; single 18 mg/kg, maintained at least up to 57 days post administration",> 65%
same,Fasting LDL-C levels,"[3]; single 18 mg/kg, until at least about 57 days post-dosing",below 50 mg/dL
same,"Fasting total cholesterol (TC), % below baseline","[3]; single 12 or 18 mg/kg, by about day 9, lasting at least to day 57, baseline about 230 mg/dL",≥ 30%
same,"Fasting total cholesterol (TC), % below baseline, in a number of subjects","[3]; single 12 or 18 mg/kg, by day 15 post-dosing",> 50%
same,mean percentage change from baseline of fasting LDL-C,"[3]; single IV 0.3 mg/kg, visit day 1",0.000%
same,mean percentage change from baseline of fasting LDL-C,"[3]; single IV 0.3 mg/kg, visit day 2",−15.8%
same,mean percentage change from baseline of fasting LDL-C,"[3]; single IV 0.3 mg/kg, visit day 3",−14.13%
same,mean percentage change from baseline of fasting LDL-C,"[3]; single IV 0.3 mg/kg, visit day 4",−30.14%
same,mean percentage change from baseline of fasting LDL-C,"[3]; single IV 0.3 mg/kg, visit day 8",−42.86%
same,mean percentage change from baseline of fasting LDL-C,"[3]; single IV 0.3 mg/kg, visit day 15",−23.68%
same,mean percentage change from baseline of fasting LDL-C,"[3]; single IV 0.3 mg/kg, visit day 22",−11.36%
same,mean percentage change from baseline of fasting LDL-C,"[3]; single IV 0.3 mg/kg, visit day 29",−9.12%
same,mean percentage change from baseline of fasting LDL-C,"[3]; single IV 1 mg/kg, visit day 1",0.000%
same,mean percentage change from baseline of fasting LDL-C,"[3]; single IV 1 mg/kg, visit day 2",−0.33%
same,mean percentage change from baseline of fasting LDL-C,"[3]; single IV 1 mg/kg, visit day 3",−9.79%
same,mean percentage change from baseline of fasting LDL-C,"[3]; single IV 1 mg/kg, visit day 4",−19.14%
same,mean percentage change from baseline of fasting LDL-C,"[3]; single IV 1 mg/kg, visit day 8",−33.33%
same,mean percentage change from baseline of fasting LDL-C,"[3]; single IV 1 mg/kg, visit day 15",−50.50%
same,mean percentage change from baseline of fasting LDL-C,"[3]; single IV 1 mg/kg, visit day 22",−22.40%
same,mean percentage change from baseline of fasting LDL-C,"[3]; single IV 1 mg/kg, visit day 29",−3.36%
same,mean percentage change from baseline of fasting LDL-C,"[3]; single IV 3 mg/kg, visit day 1",0.000%
same,mean percentage change from baseline of fasting LDL-C,"[3]; single IV 3 mg/kg, visit day 2",−1.97%
same,mean percentage change from baseline of fasting LDL-C,"[3]; single IV 3 mg/kg, visit day 3",−13.20%
